We go through one molecule from PMC7730851, “Expression of Somatostatin Receptor Subtypes (SSTR-1–SSTR-5) in Pediatric Hematological and Oncological Disorders” (Molecules, 2020).

The assay concerns somatostatin receptors (SSTR). Nature of the assay: Displacement of [125I]RC-160 binding from membranes of human pediatric tumors by unlabeled peptides. As for the experimental part: Receptor binding affinities and concentrations of SSTRs in tumor membranes were also studied. […] Biochemical specifications and parameters crucial to characterize specific binding sites were also defined. […] Various peptides structurally related or unrelated to SST were used in these studies.
Displacement of [^125I] RC-160 as a radioligand by the unlabeled SST analogs as competitor was determined.
The radioiodinated derivatives of the RC-160 SST analogue were prepared by the chloramine-T method and purified by reverse phase high-performance liquid chromatography (RP-HPLC) as described previously. Somatostatin receptor-binding assays were performed as described previously with some minor modifications, using in vitro ligand competition assays based on the binding of [^125I] RC-160 as a radioligand to membrane fractions of the pediatric samples. This radioiodinated ligand has been well characterized and reported previously and has high affinity for SSTR-2 and SSTR-5 [4]. […] After incubation for 2 h, the binding reactions were stopped, and the bound ligand was separated and counted in a gamma counter. […] The final binding affinities were expressed as IC50 values. Protein concentration was determined by the method of Bradford using a Bio-Rad protein assay kit (Bio-Rad Laboratories, Inc.).

B1: epidermal growth factor (EGF): unrelated peptide used as specificity control (protein, UniProt P01133 23-1207, looked up)
Pro-epidermal growth factor: PQHWSCPEGTLAGNGNSTCVGPAPFLIFSHGNSIFRIDTEGTNYEQLVVDAGVSVIMDFHYNEKRIYWVDLERQLLQRVFLNGSRQERVCNIEKNVSGMAINWINEEVIWSNQQEGIITVTDMKGNNSHILLSALKYPANVAVDPVERFIFWSSEVAGSLYRADLDGVGVKALLETSEKITAVSLDVLDKRLFWIQYNREGSNSLICSCDYDGGSVHISKHPTQHNLFAMSLFGDRIFYSTWKMKTIWIANKHTGKDMVRINLHSSFVPLGELKVVHPLAQPKAEDDTWEPEQKLCKLRKGNCSSTVCGQDLQSHLCMCAEGYALSRDRKYCEDVNECAFWNHGCTLGCKNTPGSYYCTCPVGFVLLPDGKRCHQLVSCPRNVSECSHDCVLTSEGPLCFCPEGSVLERDGKTCSGCSSPDNGGCSQLCVPLSPVSWECDCFPGYDLQLDEKSCAASGPQPFLLFANSQDIRHMHFDGTDYGTLLSQQMGMVYALDHDPVENKIYFAHTALKWIERANMDGSQRERLIEEGVDVPEGLAVDWIGRRFYWTDRGKSLIGRSDLNGKRSKIITKENISQPRGIAVHPMAKRLFWTDTGINPRIESSSLQGLGRLVIASSDLIWPSGITIDFLTDKLYWCDAKQSVIEMANLDGSKRRRLTQNDVGHPFAVAVFEDYVWFSDWAMPSVMRVNKRTGKDRVRLQGSMLKPSSLVVVHPLAKPGADPCLYQNGGCEHICKKRLGTAWCSCREGFMKASDGKTCLALDGHQLLAGGEVDLKNQVTPLDILSKTRVSEDNITESQHMLVAEIMVSDQDDCAPVGCSMYARCISEGEDATCQCLKGFAGDGKLCSDIDECEMGVPVCPPASSKCINTEGGYVCRCSEGYQGDGIHCLDIDECQLGEHSCGENASCTNTEGGYTCMCAGRLSEPGLICPDSTPPPHLREDDHHYSVRNSDSECPLSHDGYCLHDGVCMYIEALDKYACNCVVGYIGERCQYRDLKWWELRHAGHGQQQKVIVVAVCVVVLVMLLLLSLWGAHYYRTQKLLSKNPKNPYEESSRDVRSRRPADTEDGMSSCPQPWFVVIKEHQDLKNGGQPVAGEDGQAADGSMQPTSWRQEPQLCGMGTEQGCWIPVSSDKGSCPQVMERSFHMPSYGTQTLEGGVEKPHSLLSANPLWQQRALDPPHQMELTQ
modifications: Pro-epidermal growth factor
notes: unrelated peptide used as specificity control
B1: the “displacement of [125I]RC-160 binding” value (membrane fractions of human rhabdomyosarcoma specimen, Figure 3) is reported as “did not displace”. Under “pediatric tumor membranes, competitor 10^-12-10^-6 M, concentrations as high as 1 µM”, the “inhibition/displacement of the binding of radioiodinated RC-160” value is “none”.
